The assay addresses T1, 35 kDa protein of Oplophorus luciferase (native, purified from Oplophorus gracilirostris) (Oplophorus gracilirostris, UniProt Q9GV46 40-359).
T1 sequence: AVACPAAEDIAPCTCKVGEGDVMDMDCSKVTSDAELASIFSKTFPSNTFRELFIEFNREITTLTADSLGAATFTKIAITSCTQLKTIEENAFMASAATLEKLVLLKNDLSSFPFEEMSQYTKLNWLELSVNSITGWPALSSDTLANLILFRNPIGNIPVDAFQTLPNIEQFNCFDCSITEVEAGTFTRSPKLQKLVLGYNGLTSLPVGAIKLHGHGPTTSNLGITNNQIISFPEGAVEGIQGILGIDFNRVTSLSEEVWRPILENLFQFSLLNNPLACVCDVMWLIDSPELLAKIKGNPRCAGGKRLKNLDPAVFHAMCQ
The assay can be described thus: gel filtration of native luciferase (about 106 kDa) against SDS-PAGE and SDS gel filtration HPLC (35 kDa and 19 kDa components). As for the experimental part: The deep-sea luminous shrimp (Oplophorus gracilirostris) obtained in the Suruga Bay, Shizuoka, Japan were used as a starting material. A crude extract containing Oplophorus luciferase was prepared in the same manner as disclosed by Shimomura, et al., in Biochemistry 17 (1978) and further purified by chromatography in two steps. The first step was by hydrophobic interaction chromatography on a column of butyl Sepharose 4 Fast Flow (Pharmacia; 0.7 cm×3.5 cm) using 20 mM Tris-HCl, pH 8.5, eluting with decreasing concentrations of ammonium sulfate starting at 1.5 M. The second step was by gel filtration on a column of Superdex 200 Prep (Pharmacia; 1 cm×48 cm) in 20 mM Tris-HCl, pH 8.5, containing 50 mM NaCl. The molecular weight of Oplophorus luciferase was estimated to be about 106 kDa by gel filtration on the same column when compared with the molecular weight markers as follows: (a) amylase (200 kDa); (b) alcohol dehydrogenase (150 kDa); (c) bovine serum albumin (67 kDa); (d) ovalbumin (45 kDa); (e) carbonic anhydrase (29 kDa); and (f) ribonuclease (13.7 kDa).
SDS-PAGE analysis (12% polyacrylamide gel) of the purified samples gave two major protein bands corresponding to molecular weights of 35 kDa and 19 kDa, respectively. […]
Background: In gel filtration, larger molecules generally elute earlier.

B1: 19 kDa protein of Oplophorus luciferase (native, purified from Oplophorus gracilirostris) (enzyme)
chain: FTLADFVGDWQQTAGYNQDQVLEQGGLSSLFQALGVSVTPIQKVVLSGENGLKADIHVIIPYEGLSGFQMGLIEMIFKVVYPVDDHHFKIILHYGTLVIDGVTPNMIDYFGRPYPGIAVFDGKQITVTGTLWNGNKIYDERLINPDGSLLFRVTINGVTGWRLCENILA
notes: also called 19 kDa photoprotein
For the molecule B1, the binding result is “binds”.

(Values after patent US20040002127A1 (CHISSO, published 2004).)
